Positions count from the first letter of the chain named. Names may count otherwise.
B1: hSIRPα-S36 Nb (VHH)
VHH: EVQLVESGGGLVQPGGSLRLSCAASGFTLDYYAIGWFRQVPGKEREGVSCISSDGGGNTYYADSVKGRFTISRDNAKNTVYLQMNSLKPEDSAVYSCAAGPTYYSGSYCRDPHSDYDYWGQGTQVTVSS
notes: selected against the entire extracellular portion of hSIRPα; also called Nb S36; original S36 Nb; source: E. coli XL-1, purified (IMAC, SEC); not shown: His tag (from the IMAC purification)
B2: ^64Cu-hSIRPα-S36K>R Nb (VHH)
VHH: B1 VHH with K43R, K66R, K77R, K88R
notes: as the VHH of m15 (S36 with all four lysine residues replaced by arginine); also called ^64Cu-labeled hSIRPα-S36K>R Nb; source: E. coli, purified; chelator conjugated and radiolabeled with ^64Cu

Tests used:
recombinant hSIRPα = target: T1, recombinant hSIRPα (human, UniProt P78324); assay: HDX-MS; hSIRPα with Nb S8, S33 or S36; methods not in the text shown; settings: both partners purified
T1 construct: signal-regulatory protein α (SIRPα), human, recombinant extracellular portion; source: bought: Acrobiosystems

[1] = target: T2, full-length hSIRPα on U2OS cells (Homo sapiens, UniProt P78324); assay: immunostaining of cells or tissue; live-cell immunofluorescence on U2OS cells expressing the target; unlabeled Nbs (1 nM to 100 nM) with Cy5-labeled anti-VHH, 1 h at 37°C; settings: one partner purified
T2 construct: signal-regulatory protein α (SIRPα), human, full-length, co-expressed with IRES-derived GFP; also called U2OS-hSIRPα; source: U2OS, stably expressing, on live cells

[2] = target: T3, hSIRPα domain 2 displayed on U2OS cells (Homo sapiens, UniProt P78324); assay: as above; settings: one partner purified
T3 construct: signal-regulatory protein α (SIRPα), human, domain 2; also called hSIRPαD2; D2; source: U2OS, transiently expressing, on live cells

[3] = target: T4, hSIRPα domain 3 displayed on U2OS cells (Homo sapiens, UniProt P78324); assay: as above; settings: one partner purified
T4 construct: signal-regulatory protein α (SIRPα), human, domain 3; also called hSIRPαD3; D3; source: U2OS, transiently expressing, on live cells

[4] = target: T5, hSIRPα-V1 displayed on U2OS cells (Homo sapiens, allele V1, UniProt P78324); assay: as above; settings: one partner purified
T5 construct: signal-regulatory protein α (SIRPα), human, allelic variant V1; also called hSIRPα variant V1; source: U2OS, transiently expressing, on live cells

[5] = target: T6, hSIRPβ1 displayed on U2OS cells (Homo sapiens, UniProt O00241); assay: as above; settings: one partner purified
T6 construct: signal-regulatory protein β1 (SIRPβ1), human; source: U2OS, transiently expressing, on live cells

[6] = target: T7, hSIRPγ displayed on U2OS cells (Homo sapiens, UniProt Q9P1W8); assay: as above; settings: one partner purified
T7 construct: signal-regulatory protein γ (SIRPγ), human; also called hSIRPy; source: U2OS, transiently expressing, on live cells

[7] = target: T8, murine SIRPα displayed on U2OS cells (Mus musculus, UniProt P97797); assay: as above; settings: one partner purified
T8 construct: signal-regulatory protein α (SIRPα), mouse; also called mouse SIRPα; source: U2OS, transiently expressing, on live cells

[8] = target: T9, biotinylated recombinant hSIRPα (extracellular portion) (Homo sapiens, UniProt P78324, biotin (Sulfo-NHS-LC-LC-Biotin)); assay: BLI; Octet RED96e; biotinylated hSIRPα (5 µg/mL) immobilised on streptavidin biosensors; Nbs 0.625 nM to 320 nM in Octet buffer (PBS, 0.1% BSA, 0.02% Tween-20); association 240 s, dissociation 720 s; 1:1 model, global fit; settings: both partners purified
T9 construct: signal-regulatory protein α (SIRPα), human, recombinant extracellular portion; also called biotinylated hSIRPα; signal-regulatory protein α; source: bought: Acrobiosystems

[9] = target: T10, hSIRPα on HT1080 hSIRPα knock-in cells (Homo sapiens, UniProt P78324); assay: radioligand binding; antigen excess binding assay: 1 ng (2 MBq/µg) of ^64Cu-hSIRPα-S36K>R Nb on an increasing number of HT1080-hSIRPα cells, 1 h at 37°C; cell-bound radioactivity counted; settings: one partner purified
T10 construct: signal-regulatory protein α (SIRPα), human; source: HT1080 hSIRPα knock-in (KI) cells, on cells
T10 sequence (P78324 31-504): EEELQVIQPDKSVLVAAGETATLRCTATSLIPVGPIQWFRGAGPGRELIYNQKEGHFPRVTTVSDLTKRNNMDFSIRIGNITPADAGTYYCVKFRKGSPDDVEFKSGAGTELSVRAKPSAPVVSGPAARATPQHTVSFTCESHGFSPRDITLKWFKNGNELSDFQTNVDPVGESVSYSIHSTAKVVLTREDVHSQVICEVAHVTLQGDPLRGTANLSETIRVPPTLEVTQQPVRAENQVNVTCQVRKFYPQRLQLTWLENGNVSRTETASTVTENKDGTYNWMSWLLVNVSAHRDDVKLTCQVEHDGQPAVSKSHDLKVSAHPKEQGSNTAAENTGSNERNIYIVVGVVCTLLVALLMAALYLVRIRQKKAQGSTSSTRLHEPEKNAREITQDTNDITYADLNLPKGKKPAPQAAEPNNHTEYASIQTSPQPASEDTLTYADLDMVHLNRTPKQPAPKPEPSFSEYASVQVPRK

T6 sequence (O00241 30-398): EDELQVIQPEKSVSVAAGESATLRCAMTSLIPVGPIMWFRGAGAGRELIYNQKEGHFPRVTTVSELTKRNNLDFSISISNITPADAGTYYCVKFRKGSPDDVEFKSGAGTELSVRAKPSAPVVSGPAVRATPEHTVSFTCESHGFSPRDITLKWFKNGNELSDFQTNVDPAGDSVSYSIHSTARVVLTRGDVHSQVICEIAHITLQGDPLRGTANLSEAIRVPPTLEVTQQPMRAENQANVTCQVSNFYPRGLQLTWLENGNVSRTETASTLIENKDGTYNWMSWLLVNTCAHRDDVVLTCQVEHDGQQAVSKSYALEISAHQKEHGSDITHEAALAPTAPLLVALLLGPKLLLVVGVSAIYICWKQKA
T8 sequence (P97797 32-513): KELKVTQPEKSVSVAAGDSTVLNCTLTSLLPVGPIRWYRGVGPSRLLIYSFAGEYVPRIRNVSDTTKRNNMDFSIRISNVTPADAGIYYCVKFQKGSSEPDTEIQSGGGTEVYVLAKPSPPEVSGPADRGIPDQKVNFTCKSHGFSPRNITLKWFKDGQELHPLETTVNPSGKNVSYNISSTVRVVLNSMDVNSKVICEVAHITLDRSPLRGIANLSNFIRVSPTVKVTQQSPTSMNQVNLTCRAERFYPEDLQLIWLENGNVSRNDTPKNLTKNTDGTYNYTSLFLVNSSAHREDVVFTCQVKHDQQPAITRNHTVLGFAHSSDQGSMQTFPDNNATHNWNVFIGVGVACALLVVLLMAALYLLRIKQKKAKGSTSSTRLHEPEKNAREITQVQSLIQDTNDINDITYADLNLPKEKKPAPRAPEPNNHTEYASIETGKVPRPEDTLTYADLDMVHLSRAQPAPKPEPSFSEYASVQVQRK
T2 sequence (P78324 31-504): as the sequence (P78324 31-504) above
T5 sequence (P78324 31-504): as above
T4 sequence (P78324 whole entry, looked up, tested part not stated): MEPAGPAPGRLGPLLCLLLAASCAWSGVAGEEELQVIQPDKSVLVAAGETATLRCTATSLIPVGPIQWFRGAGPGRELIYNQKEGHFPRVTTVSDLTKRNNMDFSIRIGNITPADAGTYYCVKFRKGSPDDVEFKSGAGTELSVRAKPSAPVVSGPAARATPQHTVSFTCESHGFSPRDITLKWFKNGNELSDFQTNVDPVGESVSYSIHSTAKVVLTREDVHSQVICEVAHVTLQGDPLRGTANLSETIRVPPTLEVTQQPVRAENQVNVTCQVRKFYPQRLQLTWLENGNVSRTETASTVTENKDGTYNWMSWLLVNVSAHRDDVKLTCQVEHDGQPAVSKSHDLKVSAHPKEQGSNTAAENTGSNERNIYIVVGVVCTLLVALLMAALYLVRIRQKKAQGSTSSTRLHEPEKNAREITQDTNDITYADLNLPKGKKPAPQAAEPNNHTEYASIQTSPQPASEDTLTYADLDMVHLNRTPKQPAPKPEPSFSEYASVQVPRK
T3 sequence (P78324 whole entry, looked up, tested part not stated): as above
T9 sequence (P78324 31-373): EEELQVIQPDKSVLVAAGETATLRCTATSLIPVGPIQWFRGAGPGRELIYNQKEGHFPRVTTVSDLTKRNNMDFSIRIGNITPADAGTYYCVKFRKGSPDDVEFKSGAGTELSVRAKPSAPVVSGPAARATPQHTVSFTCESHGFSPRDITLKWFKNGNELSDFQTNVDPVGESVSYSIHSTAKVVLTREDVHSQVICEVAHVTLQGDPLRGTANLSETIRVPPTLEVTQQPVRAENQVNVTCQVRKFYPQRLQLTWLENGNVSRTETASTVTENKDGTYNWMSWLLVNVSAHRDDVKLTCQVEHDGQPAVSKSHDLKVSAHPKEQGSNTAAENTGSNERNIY
T1 sequence (P78324 31-373): as above
T7 sequence (Q9P1W8 29-387): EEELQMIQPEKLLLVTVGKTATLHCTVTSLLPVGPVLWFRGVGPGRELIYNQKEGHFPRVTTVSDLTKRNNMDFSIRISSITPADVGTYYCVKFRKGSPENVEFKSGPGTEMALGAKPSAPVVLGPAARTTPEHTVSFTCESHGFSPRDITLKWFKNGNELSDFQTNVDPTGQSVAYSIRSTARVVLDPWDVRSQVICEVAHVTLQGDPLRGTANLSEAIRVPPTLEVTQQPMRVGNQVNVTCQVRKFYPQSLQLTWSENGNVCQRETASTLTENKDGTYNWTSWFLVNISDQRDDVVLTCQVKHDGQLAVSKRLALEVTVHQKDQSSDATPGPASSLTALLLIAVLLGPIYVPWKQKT

Binder | binding result (recombinant hSIRPα) | binding result [1] | binding result [2] | binding result [3] | binding result [4] | binding result [5] | binding result [6] | binding result [7] | binding result [8] | binding result [9]
B1 | binds | binds | binds | no binding (tested: Nbs 1 nM to 100 nM) | binds | binds | binds | no binding (tested: Nbs 1 nM to 100 nM) | binds | 
B2 |  |  |  |  |  |  |  |  |  | binds

Source: paper PMC10757926, “Two birds with one stone: human SIRPα nanobodies for functional modulation and in vivo imaging of myeloid cells” (Frontiers in Immunology, 2023)
